Experimental findings from patent US20240043542A1 (published 2024) are described below.

Test [1] concerns the target T1, human B7-H4 on the cell surface (human, UniProt Q7Z7D3 25-282).
T1 sequence: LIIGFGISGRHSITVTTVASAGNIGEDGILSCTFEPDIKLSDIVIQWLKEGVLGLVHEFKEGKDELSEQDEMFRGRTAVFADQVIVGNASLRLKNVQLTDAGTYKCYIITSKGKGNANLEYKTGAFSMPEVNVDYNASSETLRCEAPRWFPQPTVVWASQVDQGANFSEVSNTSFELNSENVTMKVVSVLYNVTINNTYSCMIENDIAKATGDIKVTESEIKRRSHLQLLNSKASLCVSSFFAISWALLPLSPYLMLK
Nature of the test: cell-based or functional assay.

For test [2], the target named is T1, human B7-H4 on the cell surface. Nature of the test: cell-based or functional assay. The source holds these as a separate data set.
The target is the same in test [3]. Put plainly: flow cytometry, SK-BR-3 cells. (Flow cytometry measures light scatter and fluorescence of single cells or particles in a stream.)
Procedure: (§1) The fucosylated and afucosylated anti B7-H4 antibodies were also characterized by flow cytometry. In these experiments, HEK293T cell lines were transfected to express full-length cynomolgus monkey, mouse, or rat B7-H4. In addition, the endogenous human B7-H4 expressing SK-BR-3 breast cancer cell lines were used to assess the cell binding potency of B7-H4 antibodies. […] Following incubation, cells were pelleted, washed, incubated with a secondary labeling antibody, and run on a flow cytometer. Data were analyzed using the FlowJo software. MFI was plotted vs. antibody concentration, and the EC50 cell binding potency was calculated using nonlinear regression curve fit (GraphPad Prism).
Test [4] addresses T2, mouse B7-H4 on the cell surface (mouse, UniProt Q7TSP5 25-257).
T2 construct: full-length, on transfected HEK293T cells
T2 sequence: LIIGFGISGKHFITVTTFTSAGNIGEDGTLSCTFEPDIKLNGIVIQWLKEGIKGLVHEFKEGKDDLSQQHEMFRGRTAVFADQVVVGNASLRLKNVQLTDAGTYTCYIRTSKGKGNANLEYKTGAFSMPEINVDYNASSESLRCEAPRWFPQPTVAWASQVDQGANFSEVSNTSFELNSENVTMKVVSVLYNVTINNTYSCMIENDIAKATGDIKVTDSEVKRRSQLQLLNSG
Put plainly: flow cytometry, transfected 293 cells.
Procedure: as §1

Test [5] concerns the target T3, cynomolgus monkey B7-H4 on the cell surface (cynomolgus monkey, UniProt Q7Z7D3 25-282 (human entry)).
T3 construct: full-length, on transfected HEK293T cells
T3 chain: T1 sequence with L53I, F242L, S252A
Put plainly: flow cytometry, transfected 293 cells.
Procedure: as §1

A further test has as its target T4, B7-H4 IgV-huIgG1 (human).
T4 construct: also called N-terminal domain of human B7-H4
Put plainly: SPR, protocol of Example 4. (Surface plasmon resonance follows binding to a sensor surface in real time, without labels.)

Test [6] has as its target T5, rat B7-H4 on the cell surface (rat, UniProt Q501W4 25-257).
T5 construct: full-length, on transfected HEK293T cells
T5 sequence: T2 sequence with R109H, Q228E
Nature of the test: flow cytometry, transfected 293 cells.
Procedure: as §1

For test [7], the target named is T1, human B7-H4 on the cell surface. Put plainly: flow cytometry, SK-BR-3 cells. This is another data set of the same source.
Procedure: Following incubation, cells were pelleted, washed and incubated with a secondary labeling antibody and samples were acquired on a flow cytometer. Data was analyzed using the FlowJo software and MFI was plotted vs. antibody concentration. The EC50 cell binding potency was calculated using nonlinear regression curve fit (GraphPad Prism).
Test [8] concerns the target T3, cynomolgus monkey B7-H4 on the cell …. Put plainly: flow cytometry, 100 nM, transfected HEK293T.
Procedure: (§2) HEK293T cell lines were transfected to express full-length human, cynomolgus monkey, mouse, or rat B7-H4. In addition, the endogenous human B7-H4 expressing SK-BR-3 breast cancer cell line was used to assess the ability of the antibodies to bind B7-H4 expressed on the cell surface. 1×10⁵ parental HEK293T or transfected HEK293T cell lines were incubated with 100 nM of the B7-H4 antibodies. Following incubation, cells were pelleted, washed, and incubated with a secondary labeling antibody, and samples were acquired on a flow cytometer. Fold binding over the parental cell line (FOP) was calculated as follows: MFI transfected HKE293T cells/MFI parental HEK293T cells.
The target of test [9] is T1, human B7-H4 on the cell surface. Put plainly: flow cytometry, 100 nM, transfected HEK293T.
Procedure: as §2
The target in test [10] is T6, recombinant human B7-H4-huIgG1 (human).
T6 construct: also called B7-H4-extracellular domain (ECD)
Put plainly: BLI, antigen on Protein A tips.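 Also: Anti-B7-H4 antibodies assessed for affinity toward the B7-H4 extracellular domain using biolayer interferometry.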
Procedure: (§3) Binding affinities of anti-B7-H4 antibodies to B7-H4-extracellular domain (ECD) were determined by biolayer interferometry (BLI). […] Anti-B7-H4 antibodies were then evaluated for binding.

The target of test [11] is T7, cynomolgus monkey B7-H4 (recombinant, BLI) (cynomolgus monkey, UniProt Q7Z7D3 25-259 (human entry)).
T7 construct: also called Cynomolgus B7-H4
T7 sequence: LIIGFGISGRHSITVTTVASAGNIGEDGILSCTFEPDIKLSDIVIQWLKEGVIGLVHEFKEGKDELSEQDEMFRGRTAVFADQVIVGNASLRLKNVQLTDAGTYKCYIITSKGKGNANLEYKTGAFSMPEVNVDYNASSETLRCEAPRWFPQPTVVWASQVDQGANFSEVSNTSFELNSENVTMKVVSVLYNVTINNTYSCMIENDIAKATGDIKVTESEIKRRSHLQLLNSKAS
Put plainly: BLI, antigen on Protein A tips.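 Also: Anti-B7-H4 antibodies assessed for affinity toward the B7-H4 extracellular domain using biolayer interferometry.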 For orientation: BLI is a label-free optical method that tracks binding on a fibre tip over time.
Procedure: as §3

The target of test [12] is T8, mouse B7-H4 (recombinant, BLI) (mouse, UniProt Q7TSP5 29-256, limits assumed).
T8 construct: also called murine B7-H4
T8 sequence: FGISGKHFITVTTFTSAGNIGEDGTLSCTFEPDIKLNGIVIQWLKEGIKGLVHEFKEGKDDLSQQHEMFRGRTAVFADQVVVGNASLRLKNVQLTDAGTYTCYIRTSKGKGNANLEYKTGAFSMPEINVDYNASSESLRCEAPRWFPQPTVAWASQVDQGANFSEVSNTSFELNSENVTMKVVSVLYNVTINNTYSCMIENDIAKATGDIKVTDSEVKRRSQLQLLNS
Nature of the test: BLI, antigen on Protein A tips.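 Also: Anti-B7-H4 antibodies assessed for affinity toward the B7-H4 extracellular domain using biolayer interferometry.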
Procedure: as §3

Test [13] deals with T2, mouse B7-H4 on the cell surface. Nature of the test: flow cytometry, transfected HEK293T.

Where a chain is given by its changes, count along the chain named. Read-outs that look alike come from different tables or passages of the source.

Procedure for B7-H4 IgV-huIgG1: Briefly, anti-human Fab antibody was immobilized on a carboxyl-derivatized SPR chip surface, and anti-B7-H4 antibodies were captured on the resulting surface at 5 ug/ml for 30 seconds.

B1: B7-H4 antibody 20506, afucosylated (antibody, human IgG1, kappa, V domains shown)
VH: QLQLQESGPGLVKPSETLSLTCTASGGSISHGGYYWSWIRQHPGKGLEWIGNIYYSGSTYYNPSLKSRVTMSVDTSKNQFSLKLSSVTAADTAVYYCARESSTISADFDLWGRGTLVTVSS
VL: DIQMTQSPSSVSASVGDRVTITCRASQGISRWLAWYQQKPGKAPKLLIYAASSLQSGVPSRFSGSGSGTDFTLTISSLQPEDFATYYCQQAHTFPYTFGGGTKVEIKR
modifications: afucosylated Fc glycan (made in CHO-y cells)
notes: human IgG1/kappa
What is called EC50 is the concentration at which the effect is half-maximal. For orientation: Kd means the equilibrium constant for the complex coming apart. For orientation: koff means the rate constant with which the complex falls apart. What is called kon is a measure of how fast the partners come together. Consider B1, for which, in [1], the “ADCC Assay EC50 (SK-BR-3 target cells)” value came to 0.0015 nM. For the same molecule, the “aAPC Assay EC50 (IFNγ production)” value in [2] was 1.05 nM. Also, the EC50 in test [3] was 0.767 nM. Further, in test [4], the concentration for a half-maximal effect (EC50) is 1.77 nM. Further, the EC50 in test [5] turned out to be 1.77 nM. In the test with B7-H4 IgV-huIgG1, this molecule had a Kd of 2.01 nM, a koff of 0.000725 s⁻¹ and a kon of 360000 M⁻¹ s⁻¹.

B2: B7-H4 antibody 20506, fucosylated (antibody, human IgG1, kappa, V domains shown)
VH: B1 VH
VL: B1 VL
modifications: normally fucosylated Fc glycan (made in CHO-x cells)
notes: human IgG1/kappa
On to B2, for which, in test [1], the “ADCC Assay EC50 (SK-BR-3 target cells)” value turned out to be 0.0135 nM. The “aAPC Assay EC50 (IFNγ production)” value in [2] was 0.95 nM. The EC50 in test [3] amounted to 0.739 nM; in [4], 1.77 nM; in [5], 1.77 nM; in test [6], 3.25 nM. Further, in the test with B7-H4 IgV-huIgG1, the affinity, expressed as Kd, was 1.93 nM. The molecule further gave a koff in the test with B7-H4 IgV-huIgG1 of 0.000703 s⁻¹. The molecule further yielded a kon in the test with B7-H4 IgV-huIgG1 of 365000 M⁻¹ s⁻¹.

B3: B7-H4 antibody 15495 (antibody, human IgG1, kappa, V domains shown)
VH: QVQLVQSGAEVKKPGSSVKVSCKASGGTFSSYAISWVRQAPGQGLEWMGGIIPIFGTASYAQKFQGRVTITADESTSTAYMELSSLRSEDTAVYYCARQQYDGRRYFGLWGRGTLVTVSS
VL: EIVMTQSPATLSVSPGERATLSCRASQSVSSNLAWYQQKPGQAPRLLIYSASTRATGIPARFSGSGSGTEFTLTISSLQSEDFAVYYCQQVNVWPPTFGGGTKVEIKR
notes: human IgG1/kappa
For B3, in [7], the EC50 was 61.2 nM. Moreover, the “FOP (fold binding over the parental cell line)” value was found to be 524 fold in test [8] and 619 fold in [9]. The figures for the Kd in [10] and in test [11] were 9.44 nM and 5.17 nM, respectively. For the same molecule, the koff in test [10] stood at 0.0272 s⁻¹; in test [11], 0.0168 s⁻¹. Besides, the values for the kon in [10] and in test [11] were 2.89e+06 M⁻¹ s⁻¹ and 3.25e+06 M⁻¹ s⁻¹, respectively. Moreover, the binding result was “no binding” in test [12] and “no binding (tested: FOP 10; 100 nM antibody)” in test [13].

B4: B7-H4 antibody 15503 (antibody, human IgG1, kappa, V domains shown)
VH: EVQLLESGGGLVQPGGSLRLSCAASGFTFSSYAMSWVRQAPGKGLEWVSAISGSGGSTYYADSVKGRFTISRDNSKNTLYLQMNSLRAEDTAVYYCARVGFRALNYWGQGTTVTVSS
VL: DIQLTQSPSSVSASVGDRVTITCRASQDISSWLAWYQQKPGKAPKLLIYAASSLQSGVPSRFSGSGSGTDFTLTISSLQPEDFATYYCQQATSYPPWTFGGGTKVEIKR
notes: human IgG1/kappa
For the molecule B4, the figures for the “FOP (fold binding over the parental cell line)” value in test [8] and in [9] were 877 fold and 289 fold, respectively. The Kd in test [10] came to 10.4 nM; in test [11], 6.32 nM. The values for the koff in test [10] and in [11] were 0.0205 s⁻¹ and 0.0115 s⁻¹, respectively. The kon in test [10] was found to be 1.96e+06 M⁻¹ s⁻¹; in test [11] it was 1.82e+06 M⁻¹ s⁻¹. In addition, the binding result in test [12] was “no binding”; in [13], “no binding (tested: FOP 10; 100 nM antibody)”.
